Where two headings read alike, the source gives them in different places.
B1: HB2198 (bispecific antibody, human IgG1, kappa)
heavy 1: QVQLVQSGGGVVQPGRSLRLSCAASGVSLPDYGVSWVRKAPGKGLEWVAVIWGSETTYYNSALKSRFTISRDNSKNTLYLQMSSLRAEDTAVYYCAKHYYYGGSFAMDYWGQGTLVTVSSASTKGPSVFPLAPSSKSTSGGTAALGCLVKDYFPEPVTVSWNSGALTSGVHTFPAVLQSSGLYSLESVVTVPSSSLGTQTYICNVNHKPSNTKVDKKVEPKSCTDWSPYADQSIKVRISLKSALGDKAYEWNDNEMYLFRSSVAYAMRQYFLKVKNQMILFGEEDVRVANLKPRISFNFFVTAPKNVSDIIPRTEVEKAIRMSRSRINDAFRLNDNSLEFLGIQPTLGPPNQPPVSTSTSPTRSMAPGAVHLPQPVSTRDKTHTCPPCPAPELLGGPDVFLFPPKPKDTLMISRTPEVTCVVVDVSHEDPEVKFNWYVDGVEVHNAKTKPREEQYNSTYRVVSVLTVLHQDWLNGKEYKCKVSNKALPAPEEKTISKAKGQPREPQVCTLPPSRDELTKNQVSLSCAVKGFYPSDIAVEWESNGQPENNYKTTPPVLDSDGSFFLVSKLTVDKSRWQQGNVFSCSVMHEALHNRFTQKSLSLSPG
heavy 2: QIVLSQSPAILSASPGEKVTMTCRASSSVSYIHWFQKKPGSSPKPWIYATSNLASGVPVRFSGSGSGTSYSLTISRVEAEDAATYYCQQWTSNPPTFGGGTKVEIKSSASTKGPSVFPLAPSSKSTSGGTAALGCLVKDYFPEPVTVSWNSGALTSGVHTFPAVLQSSGLYSLKSVVTVPSSSLGTQTYICNVNHKPSNTKVDKKVEPKSCDKTHTCPPCPAPELLGGPDVFLFPPKPKDTLMISRTPEVTCVVVDVSHEDPEVKFNWYVDGVEVHNAKTKPREEQYNSTYRVVSVLTVLHQDWLNGKEYKCKVSNKALPAPEEKTISKAKGQPREPQVYTLPPCRDELTKNQVSLWCLVKGFYPSDIAVEWESNGQPENNYKTTPPVLDSDGSFFLYSKLTVDKSRWQQGNVFSCSVMHEALHNHYTQKSLSLSPG
light 1: DIQMTQSPSSLSASVGDRVTITCRASQDISKYLNWYQEKPGKAIKLLIYHTSRLHSGVPSRFSGSGSGTDFTLTISSLQPEDFATYYCQQGATLPYTFGPGTKLEIKRTVAAPSVFIFPPSDEQLKSGTASVKCLLNNFYPREAKVQWKVDNALQSGNSQESVTEQDSKDSTYSLSSTLTLSKADYEKHKVYACEVTHQGLSSPVTKSFNRGEC
light 2: QVQLQQPGAELVKPGASVKMSCKASGYTFTSYNMHWVKETPGRGLEWIGAIYPGNGDTSYNQKFKGKATLTADKSSSTAYMQLSSLTSEDSAVYYCARSTYYGGDWYFNVWGAGTLVTVSSASVAAPSVFIFPPSDEQLKSGTASVECLLNNFYPREAKVQWKVDNALQSGNSQESVTEQDSKDSTYSLSSTLTLSKADYEKHKVYACEVTHQGLSSPVTKSFNRGEC
B2: Tafasitamab (antibody, human IgG1, kappa)
heavy: EVQLVESGGGLVKPGGSLKLSCAASGYTFTSYVMHWVRQAPGKGLEWIGYINPYNDGTKYNEKFQGRVTISSDKSISTAYMELSSLRSEDTAMYYCARGTYYYGTRVFDYWGQGTLVTVSSASTKGPSVFPLAPSSKSTSGGTAALGCLVKDYFPEPVTVSWNSGALTSGVHTFPAVLQSSGLYSLSSVVTVPSSSLGTQTYICNVNHKPSNTKVDKKVEPKSCDKTHTCPPCPAPELLGGPDVFLFPPKPKDTLMISRTPEVTCVVVDVSHEDPEVQFNWYVDGVEVHNAKTKPREEQFNSTFRVVSVLTVVHQDWLNGKEYKCKVSNKALPAPEEKTISKTKGQPREPQVYTLPPSREEMTKNQVSLTCLVKGFYPSDIAVEWESNGQPENNYKTTPPMLDSDGSFFLYSKLTVDKSRWQQGNVFSCSVMHEALHNHYTQKSLSLSPG
light: DIVMTQSPATLSLSPGERATLSCRSSKSLQNVNGNTYLYWFQQKPGQSPQLLIYRMSNLNSGVPDRFSGSGSGTEFTLTISSLEPEDFAVYYCMQHLEYPITFGAGTKLEIKRTVAAPSVFIFPPSDEQLKSGTASVVCLLNNFYPREAKVQWKVDNALQSGNSQESVTEQDSKDSTYSLSSTLTLSKADYEKHKVYACEVTHQGLSSPVTKSFNRGEC
B3: Rituximab (antibody)
VH: not shown
VL: QIVLSQSPAILSASPGEKVTMTCRASSSVSYIHWFQQKPGSSPKPWIYATSNLASGVPVRFSGSGSGTSYSLTISRVEAEDAATYYCQQWTSNPPTFGGGTKLEIKRTVAAPSVFIFPPSDEQLKSGTASVVCLLNNFYPREAKVQWKVDNALQSGNSQESVTEQDSKDSTYSLSSTLTLSKADYEKHKVYACEVTHQGLSSPVTKSFNRGEC

Key:
cynomolgus monkey CD32b [1] = target: cynomolgus monkey CD32b (cynomolgus monkey)
cynomolgus monkey CD32a [2] = target: cynomolgus monkey CD32a (cynomolgus monkey)
cynomolgus monkey CD64 [3] = target: T1, cynomolgus monkey CD64 (cynomolgus monkey, UniProt A0A2K5U901 33-309)
cynomolgus monkey CD32b [4] = target: cynomolgus monkey CD32b (cynomolgus monkey); remark: listed apart in the source
cynomolgus monkey CD32a [5] = target: cynomolgus monkey CD32a (cynomolgus monkey); remark: listed apart in the source
cynomolgus monkey CD64 [6] = target: T1, cynomolgus monkey CD64; remark: listed apart in the source

T1 sequence (A0A2K5U901 entry or part of it limits assumed, form in doubt): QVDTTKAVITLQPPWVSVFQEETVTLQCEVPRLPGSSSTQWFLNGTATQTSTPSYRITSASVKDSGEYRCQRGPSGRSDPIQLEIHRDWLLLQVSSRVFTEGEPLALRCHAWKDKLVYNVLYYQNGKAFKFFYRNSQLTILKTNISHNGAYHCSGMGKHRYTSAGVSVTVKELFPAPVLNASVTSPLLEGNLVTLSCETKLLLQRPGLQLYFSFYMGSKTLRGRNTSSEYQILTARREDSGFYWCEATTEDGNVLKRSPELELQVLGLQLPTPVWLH

Row | Binder | Kd (cynomolgus monkey CD32b [1]) [nM] | Kd (cynomolgus monkey CD32a [2]) [nM] | Kd (cynomolgus monkey CD64 [3]) [nM] | Kd (cynomolgus monkey CD32b [4]) [nM] | Kd (cynomolgus monkey CD32a [5]) [nM] | Kd (cynomolgus monkey CD64 [6]) [nM]
1 | B1 | 3.4 | 4 | < 0.02 | 218 | 305 | < 0.02
2 | B2 | 152 | 181 | 1.8 | 53 | 76.2 | < 0.02
3 | B3 | – | – | – | – | – | < 0.02

Reference: patent US20250179183A1 (BIOMOLECULAR, published 2025)
